Residue numbers refer to the chain shown, from its start. Names and notes keep the numbering of the source. Like-named read-outs stand apart in the source and are kept apart here.
What was measured:
LuxR [1] = molecular target: T1, LuxR (Vibrio harveyi, UniProt P21308 1-205); assay: fluorescence anisotropy
T1 sequence: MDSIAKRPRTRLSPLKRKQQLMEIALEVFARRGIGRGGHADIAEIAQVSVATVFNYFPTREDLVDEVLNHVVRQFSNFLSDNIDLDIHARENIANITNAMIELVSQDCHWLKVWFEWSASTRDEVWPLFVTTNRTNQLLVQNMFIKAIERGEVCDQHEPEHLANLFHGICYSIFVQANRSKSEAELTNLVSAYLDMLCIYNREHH

LuxR [2] = molecular target: T1, LuxR; assay: fluorescence anisotropy; remark: listed apart in the source

B1: VPA0226/7 (dsDNA)
DNA 1: ACCAAAATTGATAAAATGAATAATTAGATAT
DNA 2: ATATCTAATTATTCATTTTATCAATTTTGGT
Kd (LuxR [1]): 73 ± 12 nM

B2: VP0057/8 (dsDNA)
DNA 1: AACATTACTGATAAATTAGATATTTATGGCT
DNA 2: AGCCATAAATATCTAATTTATCAGTAATGTT
Kd (LuxR [1]): 47 ± 8 nM

B3: VP0944/5 (dsDNA)
DNA 1: TAGAGTTAGTATCAATTTAATCAATAAGATA
DNA 2: TATCTTATTGATTAAATTGATACTAACTCTA
Kd (LuxR [1]): 30 ± 7 nM

B4: qrgB WT (dsDNA)
DNA 1: TGTTTATATTGAGTTCACAATCAATACCGATCA
DNA 2: TGATCGGTATTGATTGTGAACTCAATATAAACA
Kd (LuxR [1]): 27 ± 3 nM

B5: qrgB A6C (dsDNA)
DNA 1: B4 DNA 1 with A12C
DNA 2: B4 DNA 2 with T22G
Kd (LuxR [1]): 44 ± 5 nM

B6: qrgB A2C A17C (dsDNA)
DNA 1: B4 DNA 1 with A8C, A23C
DNA 2: B4 DNA 2 with T11G, T26G
Kd (LuxR [1]): 242 ± 46 nM

B7: qrgB A2C (dsDNA)
DNA 1: B4 DNA 1 with A8C
DNA 2: B4 DNA 2 with T26G
Kd (LuxR [1]): 27 ± 4 nM

B8: qrgB A17C (dsDNA)
DNA 1: B4 DNA 1 with A23C
DNA 2: B4 DNA 2 with T11G
Kd (LuxR [1]): 43 ± 6 nM

B9: Negative control (dsDNA)
DNA 1: ACTGACTGACTGACTGACTGACTGACTGACT
DNA 2: AGTCAGTCAGTCAGTCAGTCAGTCAGTCAGT
Kd (LuxR [2]): 136 ± 63 nM

B10: Consensus (dsDNA)
DNA 1: ACTGATATTGATAAATTTATCAATAATGACT
DNA 2: AGTCATTATTGATAAATTTATCAATATCAGT
Kd (LuxR [1]): 24 ± 4 nM

B11: VPA0197/8 (dsDNA)
DNA 1: TAAGGTAAATAATTATTTTAACAATAATTAA
DNA 2: TTAATTATTGTTAAAATAATTATTTACCTTA
Kd (LuxR [1]): 68 ± 11 nM

B12: qrr4 A17C (dsDNA)
DNA 1: CATTTTTCTGATAAATGTATTCGTAGCAATG
DNA 2: CATTGCTACGAATACATTTATCAGAAAAATG
Kd (LuxR [1]): 38 ± 5 nM

B13: qrr4 A6C (dsDNA)
DNA 1: B12 DNA 1 with A11C, C22A
DNA 2: B12 DNA 2 with G10T, T21G
Kd (LuxR [1]): 68 ± 11 nM

B14: qrr4 T15C (dsDNA)
DNA 1: B12 DNA 1 with T20C, C22A
DNA 2: B12 DNA 2 with G10T, A12G
Kd (LuxR [1]): 27 ± 4 nM

B15: qrr4 A6C A17C (dsDNA)
DNA 1: B12 DNA 1 with A11C
DNA 2: B12 DNA 2 with T21G
Kd (LuxR [1]): 112 ± 27 nM

B16: qrr4 WT (dsDNA)
DNA 1: B12 DNA 1 with C22A
DNA 2: B12 DNA 2 with G10T
Kd (LuxR [1]): 35 ± 4 nM

B17: VPA0649 (dsDNA)
DNA 1: ATTCCTTATTTACCAATTTATAAACTATGAA
DNA 2: TTCATAGTTTATAAATTGGTAAATAAGGAAT
Kd (LuxR [1]): 30 ± 8 nM
